Results from patent US20170152307A1.

Legend:
[1] = target: ptau 194-212 (pS202, pT205) (human); assay: peptide ELISA, biotinylated peptide on streptavidin plate, IgG titrated (Example 6)
[2] = target: ptau 194-212 (pS202, pT205) (human); assay: peptide ELISA, 1 ug/mL IgG
tau 194-212 (human) = assay: peptide ELISA
[3] = target: ptau 187-212 (A208) (human); assay: alanine-scan peptide ELISA, 1 ug/mL IgG
[4] = target: ptau 187-212 (pS202, pT205; as printed in Table 22) (human); assay: alanine-scan peptide ELISA, 1 ug/mL IgG
[5] = target: ptau 187-212 (A200) (human); assay: alanine-scan peptide ELISA, 1 ug/mL IgG
[6] = target: ptau 187-212 (A195) (human); assay: alanine-scan peptide ELISA, 1 ug/mL IgG
[7] = target: ptau 187-212 (A190) (human); assay: alanine-scan peptide ELISA, 1 ug/mL IgG
[8] = target: ptau 187-212 (A192) (human); assay: alanine-scan peptide ELISA, 1 ug/mL IgG
[9] = target: ptau 187-212 (A187) (human); assay: alanine-scan peptide ELISA, 1 ug/mL IgG
[10] = target: ptau 187-212 (A196) (human); assay: alanine-scan peptide ELISA, 1 ug/mL IgG
[11] = target: ptau 187-212 (A199) (human); assay: alanine-scan peptide ELISA, 1 ug/mL IgG
[12] = target: ptau 187-212 (A202) (human); assay: alanine-scan peptide ELISA, 1 ug/mL IgG
[13] = target: ptau 187-212 (A207) (human); assay: alanine-scan peptide ELISA, 1 ug/mL IgG
[14] = target: ptau 187-212 (A191) (human); assay: alanine-scan peptide ELISA, 1 ug/mL IgG
[15] = target: ptau 187-212 (A203) (human); assay: alanine-scan peptide ELISA, 1 ug/mL IgG
[16] = target: ptau 187-212 (A204) (human); assay: alanine-scan peptide ELISA, 1 ug/mL IgG
[17] = target: ptau 187-212 (A210) (human); assay: alanine-scan peptide ELISA, 1 ug/mL IgG
[18] = target: ptau 187-212 (A198) (human); assay: alanine-scan peptide ELISA, 1 ug/mL IgG
[19] = target: ptau 187-212 (A193) (human); assay: alanine-scan peptide ELISA, 1 ug/mL IgG
[20] = target: ptau 187-212 (A194) (human); assay: alanine-scan peptide ELISA, 1 ug/mL IgG
[21] = target: ptau 187-212 (A212) (human); assay: alanine-scan peptide ELISA, 1 ug/mL IgG
[22] = target: ptau 187-212 (A209) (human); assay: alanine-scan peptide ELISA, 1 ug/mL IgG
[23] = target: ptau 187-212 (A189) (human); assay: alanine-scan peptide ELISA, 1 ug/mL IgG
[24] = target: ptau 187-212 (A205) (human); assay: alanine-scan peptide ELISA, 1 ug/mL IgG
[25] = target: ptau 187-212 (A206) (human); assay: alanine-scan peptide ELISA, 1 ug/mL IgG
[26] = target: ptau 187-212 (A188) (human); assay: alanine-scan peptide ELISA, 1 ug/mL IgG
[27] = target: ptau 187-212 (A197) (human); assay: alanine-scan peptide ELISA, 1 ug/mL IgG
[28] = target: ptau 187-212 (A211) (human); assay: alanine-scan peptide ELISA, 1 ug/mL IgG
[29] = target: ptau 187-212 (A201) (human); assay: alanine-scan peptide ELISA, 1 ug/mL IgG
[30] = target: ptau 194-212 (pS202, pT205) (human); assay: peptide ELISA, 2 ug/mL IgG
ptau 189-212 (human) = assay: peptide ELISA, 2 ug/mL IgG
ptau 192-212 (human) = assay: peptide ELISA, 2 ug/mL IgG
ptau 188-209 (human) = assay: peptide ELISA, 2 ug/mL IgG
[31] = target: ptau 187-212 (pY197, pT205; as printed in Table 11) (human); assay: peptide ELISA, 2 ug/mL IgG
ptau 188-212 (human) = assay: peptide ELISA, 2 ug/mL IgG
ptau 188-205 (human) = assay: peptide ELISA
ptau 189-209 (human) = assay: peptide ELISA
tau 186-253 (human) = assay: peptide ELISA
ptau 192-217 (human) = assay: peptide ELISA
tau 190-209 (human) = assay: peptide ELISA
ptau 188-206 (human) = assay: peptide ELISA
ptau 192-215 (human) = assay: peptide ELISA
ptau 189-206 (human) = assay: peptide ELISA
ptau 192-209 (human) = assay: peptide ELISA

CBTAU-7.1 (antibody), sequence (VH): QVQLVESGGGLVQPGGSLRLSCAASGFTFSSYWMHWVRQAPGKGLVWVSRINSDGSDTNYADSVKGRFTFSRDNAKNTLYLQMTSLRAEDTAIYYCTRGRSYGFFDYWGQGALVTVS
CBTAU-7.1 (antibody), sequence (VL): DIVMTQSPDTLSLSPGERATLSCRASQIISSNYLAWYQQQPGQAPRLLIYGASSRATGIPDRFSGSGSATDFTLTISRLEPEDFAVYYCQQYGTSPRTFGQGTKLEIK
tau 194-212 (human), sequence (peptide, as listed by the source): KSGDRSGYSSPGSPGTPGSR
tau 186-253 (human), sequence (peptide, as listed by the source limits assumed): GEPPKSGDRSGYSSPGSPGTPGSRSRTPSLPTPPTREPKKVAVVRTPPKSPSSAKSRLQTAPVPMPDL

## AT8 monoclonal antibody (Thermo, MN1020)
[1]
  EC50 (read off the curve): 0.1 µg/mL
[2]
  OD450: > 1.5 od
Tau 194-212 (human)
  OD450: < 0.3 od

## CBTAU-7.1 (antibody)
[3]
  OD450: > 1.5 od
[4]
  OD450: > 1.5 od
[5]
  OD450: 1 to 1.5 od
[6]
  OD450: > 1.5 od
[7]
  OD450: > 1.5 od
[8]
  OD450: > 1.5 od
[9]
  OD450: 1 to 1.5 od
[10]
  OD450: > 1.5 od
[11]
  OD450: 1 to 1.5 od
[12]
  OD450: 1 to 1.5 od
[13]
  OD450: > 1.5 od
[14]
  OD450: > 1.5 od
[15]
  OD450: > 1.5 od
[16]
  OD450: 0.5 to 1 od
[17]
  OD450: > 1.5 od
[18]
  OD450: > 1.5 od
[19]
  OD450: > 1.5 od
[20]
  OD450: > 1.5 od
[21]
  OD450: > 1.5 od
[22]
  OD450: > 1.5 od
[23]
  OD450: 1 to 1.5 od
[24]
  OD450: 0.5 to 1 od
[25]
  OD450: 0.5 to 1 od
[26]
  OD450: 1 to 1.5 od
[27]
  OD450: > 1.5 od
[28]
  OD450: > 1.5 od
[29]
  OD450: > 1.5 od
[2]
  OD450: 1 to 1.5 od
[30]
  OD450: 1 to 1.5 od
Ptau 189-212 (human)
  OD450: 1 to 1.5 od
Ptau 192-212 (human)
  OD450: 1 to 1.5 od
Ptau 188-209 (human)
  OD450: > 1.5 od
[31]
  OD450: 0.5 to 1 od
Ptau 188-212 (human)
  OD450: 0.5 to 1 od
Ptau 188-205 (human)
  OD450: < 0.3 od
Tau 194-212 (human)
  OD450: < 0.3 od
Ptau 189-209 (human)
  OD450: < 0.3 od
Tau 186-253 (human)
  OD450: < 0.3 od
Ptau 192-217 (human)
  OD450: < 0.3 od
Tau 190-209 (human)
  OD450: < 0.3 od
Ptau 188-206 (human)
  OD450: < 0.3 od
Ptau 192-215 (human)
  OD450: < 0.3 od
Ptau 189-206 (human)
  OD450: < 0.3 od
Ptau 192-209 (human)
  OD450: < 0.3 od
